# US9889195B2, “Immunogenic composition and uses thereof” (THE UNIVERSITY OF MELBOURNE, priority 2009, dated 2018)
# B1: ovalbumin (protein, UniProt P01012 2-386, looked up)
# Ovalbumin: GSIGAASMEFCFDVFKELKVHHANENIFYCPIAIMSALAMVYLGAKDSTRTQINKVVRFDKLPGFGDSIEAQCGTSVNVHSSLRDILNQITKPNDVYSFSLASRLYAEERYPILPEYLQCVKELYRGGLEPINFQTAADQARELINSWVESQTNGIIRNVLQPSSVDSQTAMVLVNAIVFKGLWEKAFKDEDTQAMPFRVTEQESKPVQMMYQIGLFRVASMASEKMKILELPFASGTMSMLVLLPDEVSGLEQLESIINFEKLTEWTSSNVMEERKIKVYLPRMKMEEKYNLTSVLMAMGITDVFSSSANLSGISSAESLKISQAVHAAHAEINEAGREVVGSAEAGVDAASVSEEFRADHPFLFCIKHIATNAVLFFGRCVSP
# notes: model protein antigen (Sigma Aldrich)
# Assay: Overall electrostatic charge of lipopeptide or protein antigen
# Format: physicochemical
molecule,measurement,value
hen egg lysozyme [HEL],overall charge,+8
B1,overall negative charge,11
